{"source": "paper PMC8924211", "about": "(Nature Communications, 2022)", "binders": {"B1": {"name": "galanin-A2 (full-length galanin labeled with the dye A2 on an additional cysteine at the C-terminal end) (peptide)", "peptide": "GWTLNSAGYLLGPHAVGNHRSFSDKNGLTSC", "modifications": "dye A2 on the additional C-terminal cysteine", "notes": "numbers count on: the mature protein; additional cysteine at the C-terminal end of the peptide, carries the dye A2; source: synthetic peptide (synthesized by Vazyme, China)"}}, "test_in_all_cases": "AlphaScreen or HTRF; saturation binding: HEK293 cells transfected with SNAP-tagged receptor (WT or mutant) and labelled with SNAP-Lumi4-Tb, incubated with increasing concentrations of galanin-A2 in the presence or absence of 100 uM unlabeled galanin, 1 h at room temperature; HTRF ratio 665 nm/620 nm", "settings_in_all_cases": "one partner purified", "key": {"[1]": {"target": "T1, SNAP-GAL1R H112^3.29A (human, UniProt P47211 1-349, H112^3.29A, Lumi4-Tb on the SNAP tag)", "T1 construct": "also called H112A; source: HEK293, transfected, on cells; not shown: SNAP tag, N-terminal, kept", "T1 sequence (looked up)": "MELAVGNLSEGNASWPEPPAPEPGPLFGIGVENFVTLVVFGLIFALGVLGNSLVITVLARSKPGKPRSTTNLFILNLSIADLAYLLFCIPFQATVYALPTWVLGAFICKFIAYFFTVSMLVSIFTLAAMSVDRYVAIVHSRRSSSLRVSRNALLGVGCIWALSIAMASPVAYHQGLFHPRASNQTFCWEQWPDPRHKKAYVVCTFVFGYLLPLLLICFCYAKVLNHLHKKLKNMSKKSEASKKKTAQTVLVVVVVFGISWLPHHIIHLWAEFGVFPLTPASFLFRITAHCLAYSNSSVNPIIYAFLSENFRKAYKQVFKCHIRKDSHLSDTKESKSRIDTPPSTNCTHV"}, "[2]": {"target": "T2, SNAP-GAL1R K197^5.35A (human, UniProt P47211 1-349, K197^5.35A, Lumi4-Tb on the SNAP tag)", "T2 construct": "also called K197A; source: HEK293, transfected, on cells; not shown: SNAP tag, N-terminal, kept", "T2 sequence (looked up)": "T1 sequence (looked up) with A112H, K197A"}, "[3]": {"target": "T3, SNAP-GAL1R H289^7.39A (human, UniProt P47211 1-349, H289^7.39A, Lumi4-Tb on the SNAP tag)", "T3 construct": "also called H289A; source: HEK293, transfected, on cells; not shown: SNAP tag, N-terminal, kept", "T3 sequence (looked up)": "T1 sequence (looked up) with A112H, H289A"}, "[4]": {"target": "T4, SNAP-GAL1R R285^7.35A (human, UniProt P47211 1-349, R285^7.35A, Lumi4-Tb on the SNAP tag)", "T4 construct": "also called R285A; source: HEK293, transfected, on cells; not shown: SNAP tag, N-terminal, kept", "T4 sequence (looked up)": "T1 sequence (looked up) with A112H, R285A"}, "[5]": {"target": "T5, N-terminal-SNAP-tagged GAL1R, wild type (human, UniProt P47211 1-349, Lumi4-Tb on the SNAP tag)", "T5 construct": "also called SNAP-GAL1R; GAL1R WT; source: HEK293, transfected, on cells; not shown: SNAP tag, N-terminal, kept", "T5 sequence (looked up)": "T1 sequence (looked up) with A112H"}}, "note": "Positions count from the first letter of the chain named."}
{"binder": "B1", "values": [{"measurement": "Kd", "setting": "[1]", "value": 59.8, "unit": "nM"}, {"measurement": "Kd", "setting": "[2]", "value": 159, "unit": "nM"}, {"measurement": "Kd", "setting": "[3]", "value": 136, "unit": "nM"}, {"measurement": "Kd", "setting": "[4]", "value": 159, "unit": "nM"}, {"measurement": "Kd", "setting": "[5]", "value": 22.2, "unit": "nM"}]}
